Where “and” joins values, the source holds several entries; their conditions need not be identical. Equal values may be shown once.
B1: AP: Alkaline phosphatase (AP) from bovine intestinal mucosa, Sigma (protein, UniProt P19111 20-506, looked up)
Intestinal-type alkaline …: LVPVEEEDPAFWNRQAAQALDVAKKLQPIQTAAKNVILFLGDGMGVPTVTATRILKGQMNGKLGPETPLAMDQFPYVALSKTYNVDRQVPDSAGTATAYLCGVKGNYRTIGVSAAARYNQCKTTRGNEVTSVMNRAKKAGKSVGVVTTTRVQHASPAGAYAHTVNRNWYSDADLPADAQMNGCQDIAAQLVNNMDIDVILGGGRKYMFPVGTPDPEYPDDASVNGVRKRKQNLVQAWQAKHQGAQYVWNRTALLQAADDSSVTHLMGLFEPADMKYNVQQDHTKDPTLQEMTEVALRVVSRNPRGFYLFVEGGRIDHGHHDDKAYMALTEAGMFDNAIAKANELTSELDTLILVTADHSHVFSFGGYTLRGTSIFGLAPSKALDSKSYTSILYGNGPGYALGGGSRPDVNDSTSEDPSYQQQAAVPQASETHGGEDVAVFARGPQAHLVHGVEEETFVAHIMAFAGCVEPYTDCNLPAPTTATSIPD

Tests used:
[1] = molecular target: Cytochrome C (equine) (Equus caballus, UniProt P00004); experiment: Mechano-chemical effect of a specific ligand on cross-linked protein film (isometric tension); format: biochemical; settings: electrospray deposited, reduction with dithionite
[2] = molecular target: T1, Alkaline phosphatase (AP) from bovine intestinal mucosa (Bos taurus, UniProt P19111); experiment: Recovery of specific AP activity (pNPP) after electrospray deposition or drying; format: biochemical; settings: for Activity % (ratio of specific activity of the electrospray-deposited AP to that in the initial solution): +(3-4) kV, 1-50 nA, 0.1 μL/min, tip distance 10 mm, humidity 65 ± 5%
T1 construct: purchased Sigma Chemical Co., St. Louis, Mo; host or cells: bovine intestinal mucosa
Excerpt: Materials. Alkaline phosphatase (AP) from bovine intestinal mucosa, p-nitrophenyl phosphate (pNPP substrate table set, Sigma Fast), trehalose and sucrose were obtained from Sigma Chemical Co., St. Louis, Mo. All other salts and buffer reagents were of analytical grade.
Design of Capillaries for Electrospray. Three different designs of the electrospray capillaries have been tested throughout this study. A first design, shown in FIG. 20A, is similar to the “nanoelectrospray ion source” (Wilm et al., 1994 and 1996) with a silver layer plated on the external surface of the capillary instead of gold. Glass capillaries with sealed ends were first treated for 20 seconds with an electrodeless plasma discharge at reduced pressure (0.01 Torr, discharge power of 10-20 W, in a Pyrex class chamber, 0.25 L). After such plasma cleaning, the glass capillaries were activated in an acidified solution of SnCl2 and 50 g of HCl per 1 L), washed with water and covered with a silver “mirror” (Yampolskii et al., 1981). This design is referred to as a capillary with an external electrode.
A second design, shown in FIG. 20B, is a modification of an electrospray capillary described by the laboratory of the present inventors (Morozov et al., 1993). In this capillary metal electrode (tungsten or stainless steel wire) is not exposed to a gas phase, thus reducing the risk of cornea discharge at high voltages. This second design is referred to as a capillary with an inner electrode.
In a third design, of the capillary (referred to as a bridge capillary), contact of protein solutions with a metal electrode was completely avoided by introducing a liquid bridge between them. […] Since the cross-section of the external capillary 5 is more than ten times larger than that of the inner capillary 7, the conductivity of the external capillary exceeds […] the conductivity of the inner capillary, making most of the current go through the large external capillary 5, whereas the internal plastic capillary 7 is used to supply protein solution.
A microprocessor controlled syringe pump (Cole-Parmer, Niles, Ill.) in combination with a 10 μL Hamilton microsyringe was used to feed the electrospray capillaries. The flow rate was 6-9 μL/h, and the outer diameter of the capillary tips varied in different experiments between 50 and 100 μm.
Chamber with Controlled Humidity. To control humidity during electrospray experiments with enzymes and to protect protein samples from contamination with dust particles present in the ambient air, the electrospray deposition was performed in a small (0.5 L) nearly cubic acrylic box, schematically presented in FIG. 21. A glass window was glued to one side of the box to enable sharp observation of the electrospray torch and substrate under a stereo microscope. The humidity and temperature inside the chamber were measured with solid state digital sensors (Fisher) with 2-4% precision for humidity and 0.2° C. for temperature. To increase the rate of sensor response and to keep the same humidity in all parts of the chamber, the air was stirred with a small fan. Dry air from a tank or air bubbled through water was introduced into the chamber until the required humidity was reached. The fan was then stopped, and electrospray initiated. Occasionally, portions of dry or wet gas were added during the spray experiment if the humidity deviated by more than 3-5% from the required level.
Mass Measurements of the Electrospray-Deposited Proteins. A home-built Quartz Crystal Microbalance (QCM; Sauerbrey, 1959) was used to measure the mass of the electrospray-deposited protein. The microbalance was made of commercial AT-cut quartz crystals (12-17 MHz, with silver electrodes of 5 mm in diameter) after removal of their protective shells. QCM calibration was performed using 0.1% solution of sugar in water. […]

[3] = Engström, 1961; cited from earlier work
[4] = molecular target: T2, alkaline phosphatase (Bos taurus, UniProt P19111); experiment: Enzyme activity of electrospray-deposited alkaline phosphatase on nitrocellulose filter (BCIP/NBT substrate); format: biochemical; settings: deposited through polypropylene mask onto wetted nitrocellulose filter; BCIP/NBT staining
T2 construct: purchased Sigma Chemical Company, St. Louis, Mo
Excerpt: The electrospray conditions used in this example were similar to those used in Example 1.
Likewise, the membrane filters on which alkaline phosphatase was deposited was soaked in a standard alkaline phosphatase substrate (5-bromo-4-chloro-3-indolyl phosphate/nitro blue tetrazolium substrate system kit, Sigma, St. Louis, Mo.), resulting in the formation of an insoluble blue colored product of the alkaline phosphatase reaction, and the pattern was visualized as shown in FIG. 12B.

[5] = molecular target: Bovine intestinal AP (Bos taurus, UniProt P19111); settings: McComb et al., 1979; cited from earlier work

Chain of Cytochrome C (equine) (P00004 whole entry): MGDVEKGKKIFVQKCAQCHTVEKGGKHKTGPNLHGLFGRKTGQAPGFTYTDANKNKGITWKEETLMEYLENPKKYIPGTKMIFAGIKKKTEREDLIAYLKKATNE

Molecule	Effect in Electrospray Deposit Sample % (relative change in isometric tension) [1]	Activity % (ratio of specific activity of the electrospray-deposited AP to that in the initial solution) ([2]; Bridge Type capillary)	AP activity after electrospray deposition at high voltage and current ([2]; V>7-8 kV, I>500-1500 nA)	AP activity preserved upon drying ([2]; addition of 50% (w/w) of disaccharide (sucrose or trehalose))	difference in specific AP activity of deposits made at low current before and after electrospray at 1500 nA from the same capillary ([2]; capillaries with internal and external electrodes)	Activity % (ratio of specific activity of the electrospray-deposited AP to that in the initial solution) ([2]; capillary with External Electrode)	Activity % (ratio of specific activity of the electrospray-deposited AP to that in the initial solution) ([2]; capillary with Internal Electrode)	AP inactivation upon electrospray deposition ([2]; capillary with internal electrode, humidity A=65%, currents not exceeding 50 nA)	decrease of AP activity upon electrospray deposition under low humidity ([2]; rapid drying of droplets in gas phase, low humidity, +4 kV, internal electrode, 10-50 nA, 6 μL/h)	AP inactivation upon electrospray deposition ([2]; the two other capillary designs (external electrode, bridge), similar currents and humidity)	pI [3]	enzymatic activity after electrospray deposition [4]	pH of exposure causing irreversible inactivation [5]
O=S(O)S(=O)O [dithionite]	−41% and −49%												
B1		31 ± 12%	loses nearly all of its activity	100%	no notable difference	32 ± 9%	55 ± 10%	approximately 45%	30%	70%	4.4	retained	4.5-5.0

From patent US6350609B1, “Electrospraying for mass fabrication of chips and libraries” (New York University, priority 1997, dated 2002)
